According to publication PMC10397247:

How the values were obtained:
4H72-bA = molecular target: T1, 4H72-bA; assay: two-hybrid library CCNG1;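 further: natural log of median RNA to DNA barcode read ratio; higher means stronger binding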
T1 chain: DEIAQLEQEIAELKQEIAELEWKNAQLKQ

4H908-bA = molecular target: T2, 4H908-bA; assay: two-hybrid library CCNG1;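 further: natural log of median RNA to DNA barcode read ratio; higher means stronger binding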
T2 chain: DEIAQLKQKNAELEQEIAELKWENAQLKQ

O10-bS = molecular target: T3, O10-bS; assay: two-hybrid library CCNG1;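 further: natural log of median RNA to DNA barcode read ratio; higher means stronger binding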
T3 chain: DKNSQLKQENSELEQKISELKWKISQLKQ

4H797-bA = molecular target: T4, 4H797-bA; assay: two-hybrid library CCNG1;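 further: natural log of median RNA to DNA barcode read ratio; higher means stronger binding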
T4 chain: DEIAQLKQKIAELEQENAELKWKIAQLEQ

4H967-bA = molecular target: T5, 4H967-bA; assay: two-hybrid library CCNG1
T5 chain: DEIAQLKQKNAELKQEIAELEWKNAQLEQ

4H953-bA = molecular target: T6, 4H953-bA; assay: two-hybrid library CCNG1
T6 chain: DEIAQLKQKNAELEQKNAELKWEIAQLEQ

4H883-bA = molecular target: T7, 4H883-bA; assay: two-hybrid library CCNG1
T7 chain: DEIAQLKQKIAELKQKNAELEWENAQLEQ

4H717-bA = molecular target: T8, 4H717-bA; assay: two-hybrid library CCNG1
T8 chain: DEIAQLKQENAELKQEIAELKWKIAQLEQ

4H607-bA = molecular target: T9, 4H607-bA; assay: two-hybrid library CCNG1
T9 chain: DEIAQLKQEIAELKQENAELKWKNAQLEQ

4H754-bA = molecular target: T10, 4H754-bA; assay: two-hybrid library CCNG1
T10 chain: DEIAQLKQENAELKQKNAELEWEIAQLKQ

4H850-bN = molecular target: T11, 4H850-bN; assay: two-hybrid library CCNG1
T11 chain: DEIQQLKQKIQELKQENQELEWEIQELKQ

4H687-bA = molecular target: T12, 4H687-bA; assay: two-hybrid library CCNG1
T12 chain: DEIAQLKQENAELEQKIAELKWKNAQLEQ

P5A-bA = molecular target: T13, P5A-bA; assay: two-hybrid library CCNG1
T13 chain: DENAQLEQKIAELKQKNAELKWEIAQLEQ

4H918-bA = molecular target: T14, 4H918-bA; assay: two-hybrid library CCNG1
T14 chain: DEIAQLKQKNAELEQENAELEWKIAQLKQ

4H568-bA = molecular target: T15, 4H568-bA; assay: two-hybrid library CCNG1
T15 chain: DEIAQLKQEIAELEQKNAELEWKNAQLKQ

APC4436-AA = molecular target: T16, APC4436-AA; assay: two-hybrid library CCmax; details: mean of both orientations
T16 chain: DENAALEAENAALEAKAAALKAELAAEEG

APC2405-AA = molecular target: T17, APC2405-AA; assay: two-hybrid library CCmax; details: mean of both orientations
T17 chain: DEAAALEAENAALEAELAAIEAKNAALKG

APC9319-AA = molecular target: T18, APC9319-AA; assay: two-hybrid library CCmax; details: mean of both orientations
T18 chain: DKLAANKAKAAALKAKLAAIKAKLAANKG

APC1015-AA = molecular target: T19, APC1015-AA; assay: two-hybrid library CCmax; details: mean of both orientations
T19 chain: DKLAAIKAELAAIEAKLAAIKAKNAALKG

APC232-AA = molecular target: T20, APC232-AA; assay: two-hybrid library CCmax; details: mean of both orientations
T20 chain: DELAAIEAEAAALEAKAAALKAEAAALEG

APC8910-AA = molecular target: T21, APC8910-AA; assay: two-hybrid library CCmax; details: mean of both orientations
T21 chain: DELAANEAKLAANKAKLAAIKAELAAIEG

APC3645-AA = molecular target: T22, APC3645-AA; assay: two-hybrid library CCmax; details: mean of both orientations
T22 chain: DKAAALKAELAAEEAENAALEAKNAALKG

APC1434-AA = molecular target: T23, APC1434-AA; assay: two-hybrid library CCmax; details: mean of both orientations
T23 chain: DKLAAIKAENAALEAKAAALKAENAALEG

APC8191-AA = molecular target: T24, APC8191-AA; assay: two-hybrid library CCmax; details: mean of both orientations
T24 chain: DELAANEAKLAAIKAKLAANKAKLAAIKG

APC5383-AA = molecular target: T25, APC5383-AA; assay: two-hybrid library CCmax; details: mean of both orientations
T25 chain: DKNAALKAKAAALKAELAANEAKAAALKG

APC7099-AA = molecular target: T26, APC7099-AA; assay: two-hybrid library CCmax; details: mean of both orientations
T26 chain: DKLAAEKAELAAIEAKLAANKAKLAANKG

APC9096-AA = molecular target: T27, APC9096-AA; assay: two-hybrid library CCmax; details: mean of both orientations
T27 chain: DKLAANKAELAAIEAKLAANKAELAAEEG

4H3330-AA = molecular target: T28, 4H3330-AA; assay: two-hybrid library CCmax; details: mean of both orientations
T28 chain: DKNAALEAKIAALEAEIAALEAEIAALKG

4H733-AA = molecular target: T29, 4H733-AA; assay: two-hybrid library CCmax; details: mean of both orientations
T29 chain: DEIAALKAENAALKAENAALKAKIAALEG

APC2237-AA = molecular target: T30, APC2237-AA; assay: two-hybrid library CCmax; details: mean of both orientations
T30 chain: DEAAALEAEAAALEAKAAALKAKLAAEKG

APC4264-AA = molecular target: T31, APC4264-AA; assay: two-hybrid library CCmax; details: mean of both orientations
T31 chain: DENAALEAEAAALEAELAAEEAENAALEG

4H2290-AA = molecular target: T32, 4H2290-AA; assay: two-hybrid library CCmax; details: mean of both orientations
T32 chain: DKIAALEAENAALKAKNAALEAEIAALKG

4H716-AA = molecular target: T33, 4H716-AA; assay: two-hybrid library CCmax; details: mean of both orientations
T33 chain: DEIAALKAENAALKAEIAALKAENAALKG

4H2458-AA = molecular target: T34, 4H2458-AA; assay: two-hybrid library CCmax; details: mean of both orientations
T34 chain: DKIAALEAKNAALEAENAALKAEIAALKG

4H807-AA = molecular target: T35, 4H807-AA; assay: two-hybrid library CCmax; details: mean of both orientations
T35 chain: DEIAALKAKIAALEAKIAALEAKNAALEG

APC4011-AA = molecular target: T36, APC4011-AA; assay: two-hybrid library CCmax; details: mean of both orientations
T36 chain: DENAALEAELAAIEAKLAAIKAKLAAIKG

4H2447-AA = molecular target: T37, 4H2447-AA; assay: two-hybrid library CCmax; details: mean of both orientations
T37 chain: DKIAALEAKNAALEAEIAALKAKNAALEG

4H2148-AA = molecular target: T38, 4H2148-AA; assay: two-hybrid library CCmax
T38 chain: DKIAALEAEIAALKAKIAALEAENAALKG

APC6108-AA = molecular target: T39, APC6108-AA; assay: two-hybrid library CCmax; details: mean of both orientations
T39 chain: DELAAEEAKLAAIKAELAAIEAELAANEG

4H2937-bN = molecular target: T40, 4H2937-bN; assay: two-hybrid library CCNG1
T40 chain: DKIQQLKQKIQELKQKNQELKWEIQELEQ

4H342-bN = molecular target: T41, 4H342-bN; assay: two-hybrid library CCNG1
T41 chain: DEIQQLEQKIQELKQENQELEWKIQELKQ

4H48-bN = molecular target: T42, 4H48-bN; assay: two-hybrid library CCNG1
T42 chain: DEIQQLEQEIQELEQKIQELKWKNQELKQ

4H491-bN = molecular target: T43, 4H491-bN; assay: two-hybrid library CCNG1
T43 chain: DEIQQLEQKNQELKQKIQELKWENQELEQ

4H2883-bN = molecular target: T44, 4H2883-bN; assay: two-hybrid library CCNG1
T44 chain: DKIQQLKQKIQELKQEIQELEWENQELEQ

4H2944-bN = molecular target: T45, 4H2944-bN; assay: two-hybrid library CCNG1
T45 chain: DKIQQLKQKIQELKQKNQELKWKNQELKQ

DEIAQLKQEIAELEQKNAELEWKNAQLKQ [4H568-bA] gave an interaction score (4H72-bA) of -0.657, an interaction score (4H908-bA) of -1.26 and an interaction score (O10-bS) of -1.27. For the same binder, the interaction score (4H797-bA) was -0.352, the interaction score (4H967-bA) was -0.986 and the interaction score (4H953-bA) was -1.16. The interaction score (4H883-bA) was 1.54, the interaction score (4H717-bA) was -0.468 and the interaction score (4H607-bA) was -1.48. The interaction score (4H754-bA) was -0.527, the interaction score (4H850-bN) was 0.0841 and the interaction score (4H687-bA) was -0.587. The interaction score (P5A-bA) was -1.54, the interaction score (4H918-bA) was -0.305 and the interaction score (4H568-bA) was 1.33.

With DKIAALEAEIAALKAKIAALEAENAALKG [4H2148-AA] the interaction score (APC4436-AA) was -1.32, the interaction score (APC2405-AA) was -1.19 and the interaction score (APC9319-AA) was -1.42. The interaction score (APC1015-AA) was 0.959, the interaction score (APC232-AA) was -1.38 and the interaction score (APC8910-AA) was -1.35. For the same binder, the interaction score (APC3645-AA) was -1.31, the interaction score (APC1434-AA) was -1.39 and the interaction score (APC8191-AA) was -1.4. The interaction score (APC5383-AA) was -1.66, the interaction score (APC7099-AA) was -1.55 and the interaction score (APC9096-AA) was -1.24. For the same binder, the interaction score (4H3330-AA) was -0.193, the interaction score (4H733-AA) was -1.59 and the interaction score (APC2237-AA) was -1.14. The interaction score (APC4264-AA) was -1.81, the interaction score (4H2290-AA) was -1.47 and the interaction score (4H716-AA) was -1.22. It also gave an interaction score (4H2458-AA) of -1.46, an interaction score (4H807-AA) of -1.41 and an interaction score (APC4011-AA) of -0.327. For the same binder, the interaction score (4H2447-AA) was -1.42, the interaction score (4H2148-AA) was 1.63 and the interaction score (APC6108-AA) was -1.13.

Binder DKIQQLKQKIQELKQEIQELEWENQELEQ [4H2883-bN] has an interaction score (4H2937-bN) of -1.33, an interaction score (4H342-bN) of -1.84 and an interaction score (4H48-bN) of 2. It also gave an interaction score (4H491-bN) of -0.669, an interaction score (4H2883-bN) of 0.96 and an interaction score (4H2944-bN) of 0.237.
